Values joined by “and” are separate entries in the source; they are usually repeats but may differ in a detail not shown here. Equal entries are not always repeated.
B1: Barstar, P11540 (parent)
chain: MKKAVINGEQIRSISDLHQTLKKELALPEYYGENLDALWDCLTGWVEYPLVLEWRQFEQSKQLTENGAESVLQVFREAKAEGCDITIILS

Variants of: B1
Details: Bacillus amyloliquefaciens; pH 8; 25 °C; Urea; CD; Tris 20 mM; reversible: yes; structure 1BTA; whole UniProt chain shown

For W39F W45F C41A C83A A26C, the “denaturant midpoint (higher = more stable)” value (“denaturant midpoint” for short) was 3.5 M and 3.4 M and the unfolding free energy was 4.4 kcal/mol and 4.3 kcal/mol.

For W39F W45F S13T C41A, the “denaturant midpoint” value was 3.4 M and 3.5 M and the unfolding free energy was 4.5 kcal/mol.

With W39F W45F C41A C83A L63C the “denaturant midpoint” value was 3.3 M and the unfolding free energy was 4 kcal/mol.

In the case of W39F W45F C83A, the “denaturant midpoint” value is reported as 3.3 M and 3.7 M and the unfolding free energy is reported as 4.2 kcal/mol and 4.7 kcal/mol.
